Data taken from paper PMC5025654.

Columns and labels:
[1] = molecular target: TGF-β1 of the porcine enamel matrix (porcine (endogenous in porcine enamel))
[2] = molecular target: TGF-β1 of the porcine enamel matrix (porcine (endogenous in porcine enamel)); experiment: dynamic light scattering; multi-angle DLS, 25.0 °C, Tris; original (TGF-β1-bound) P103 amelogenin at c > 6.0 mg mL^-1 (Line 1), D extrapolated to D0; RH 3.21 nm, Mw from an empirical RH-Mw relation; complex formed in vivo
[3] = molecular target: P103 amelogenin (porcine); experiment: dynamic light scattering; multi-angle DLS, 25.0 °C, Tris; D extrapolated to zero concentration (D0), RH by Stokes-Einstein, Mw from an empirical RH-Mw relation; P103-1 and P103-2 amelogenins and original P103 amelogenin at c < 4.0 mg mL^-1; RH 2.57 nm
[4] = molecular target: TGF-β1 of the porcine enamel matrix (porcine (endogenous in porcine enamel)); experiment: co-elution on RP-HPLC, TGF-β1 quantified by ALP-inducing activity of HPDL cells; amelogenins as purified from enamel (before the in vitro binding); ng of TGF-β1 per mg of amelogenin calculated from standard CF-hTGF-β1 (0.3 ng mL^-1), after dilution correction; complexes formed in vivo
[5] = molecular target: carrier-free recombinant human TGF-β1 (human); experiment: in vitro binding, RP-HPLC, TGF-β1 quantified by ALP-inducing activity of HPDL cells; purified amelogenin mixed with CF-hTGF-β1 or rh-latent TGF-β1, fractions from RP-HPLC tested in the ALP-HPDL system; ng per mg of amelogenin calculated from standard CF-hTGF-β1 (0.3 ng mL^-1), after dilution correction; details in the Supplementary Methods
[6] = molecular target: TGFBR1 of porcine enamel organ epithelia (porcine (endogenous in enamel organ epithelia)) (UniProt Q5CD18)
TGFBR1 of porcine enamel organ epithelia (porcine (endogenous in enamel organ epithelia)), sequence (Q5CD18 30-503): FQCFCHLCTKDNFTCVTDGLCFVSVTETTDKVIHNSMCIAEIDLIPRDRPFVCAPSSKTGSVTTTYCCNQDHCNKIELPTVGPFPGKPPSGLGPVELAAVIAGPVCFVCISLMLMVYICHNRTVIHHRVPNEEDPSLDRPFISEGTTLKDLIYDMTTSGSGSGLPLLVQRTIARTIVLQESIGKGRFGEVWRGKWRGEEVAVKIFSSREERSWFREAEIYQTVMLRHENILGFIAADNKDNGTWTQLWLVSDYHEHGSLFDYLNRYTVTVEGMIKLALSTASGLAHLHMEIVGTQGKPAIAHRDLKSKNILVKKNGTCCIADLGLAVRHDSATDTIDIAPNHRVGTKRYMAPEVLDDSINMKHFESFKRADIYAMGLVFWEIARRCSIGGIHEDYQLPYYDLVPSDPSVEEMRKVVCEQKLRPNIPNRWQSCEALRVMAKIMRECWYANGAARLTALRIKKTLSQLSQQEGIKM

TGF-β1 of the porcine enamel matrix (porcine (endogenous in porcine enamel)), sequence (P07200 30-390): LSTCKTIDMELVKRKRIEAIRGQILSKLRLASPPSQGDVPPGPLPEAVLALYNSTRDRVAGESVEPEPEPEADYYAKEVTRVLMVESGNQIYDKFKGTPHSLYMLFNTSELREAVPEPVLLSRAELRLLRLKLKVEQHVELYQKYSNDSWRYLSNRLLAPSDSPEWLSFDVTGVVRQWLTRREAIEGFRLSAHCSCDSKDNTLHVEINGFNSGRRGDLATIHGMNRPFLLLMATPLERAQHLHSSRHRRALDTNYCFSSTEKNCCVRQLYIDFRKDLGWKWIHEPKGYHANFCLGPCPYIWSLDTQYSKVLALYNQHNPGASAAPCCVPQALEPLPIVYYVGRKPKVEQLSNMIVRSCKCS
P103 amelogenin-TGF-β1 complex, sequence (P07200 whole entry, looked up, one chain of several): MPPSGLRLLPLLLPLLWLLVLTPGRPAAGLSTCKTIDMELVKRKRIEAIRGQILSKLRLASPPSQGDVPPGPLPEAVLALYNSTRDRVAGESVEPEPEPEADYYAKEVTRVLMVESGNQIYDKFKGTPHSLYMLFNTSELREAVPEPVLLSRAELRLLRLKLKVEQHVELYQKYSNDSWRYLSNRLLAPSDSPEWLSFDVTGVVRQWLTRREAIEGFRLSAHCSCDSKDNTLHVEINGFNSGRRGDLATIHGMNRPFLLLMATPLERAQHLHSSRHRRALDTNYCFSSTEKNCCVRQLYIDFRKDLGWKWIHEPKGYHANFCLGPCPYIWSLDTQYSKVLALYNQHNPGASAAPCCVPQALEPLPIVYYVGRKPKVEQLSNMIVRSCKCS

Substance	ALP-inducing activity of HPDL cells left after digestion of the P103 amelogenin-TGF-β1 complex with pKLK4 for 20 h, compared to the level before digestion (CF-hTGF-β1 alone: 8%) [1]	stoichiometry N (amelogenin trimer per TGF-β homodimer) [2]	stoichiometry N [3]	original TGF-β1, ng against 1 mg of amelogenin [4]	bound TGF-β1, ng against 1 mg of amelogenin [5]	TR-FRET TGFBR1 kinase assay (phosphorylation of ULight-Topo IIα peptide, 5 mM ATP), FRET signal after 12 h with the complex added, against the control without addition (% higher than the control) [6]
P103 amelogenin (domain or fragment)	70%	1	3	0.797 ng	1.08 ng	–
P103 amelogenin-TGF-β1 complex (from UniProt P07200 279-390)	–	–	–	–	–	5
P148 amelogenin (domain or fragment)	–	–	–	0.263 ng	1.06 ng	–
P162 amelogenin (domain or fragment)	–	–	–	0.201 ng	1.17 ng	–
